Experimental data: the RNAGym collection of RNA variant scans (doi:10.7554/elife.80360)

B1: HDV Ribozyme (parent)
chain: GGCCGGCAUGGUCCCAGCCUCCUCGCUGGCGCCGGCUGGGCAACAUUCCGAGGGGACCGUCCCCUCGGUAAUGGCGAAUGGGACCCA

Variants of: B1
Assay: self-cleavage, relative activity (ratio to wild type); higher = more cleavage; co-transcriptional

In order of falling self-cleavage:
1. U9G C86U  1.42
2. U9G C86G  1.33
3. A8G G52C  1.26
4. G10C A87C  1.17
5. A43U C44A  1.16
6. G52A C66A  1.09
7. C62A C85U  1.05
8. C48A C86G  1.04
9. U27A C61U  0.997
10. C48U A56G  0.989
11. U37C G67C  0.989
12. G54A  0.961
13. G10C G40A  0.95
14. G50A C84A  0.95
15. C33U C66G  0.946
16. G50C U65A  0.919
17. C14U U47A  0.906
18. A70U A83G  0.902
19. C41A C48G  0.898
20. G10C A87G  0.887
21. G55U C84A  0.886
22. U27A C57A  0.855
23. U27C G54U  0.845
24. C44A G55C  0.831
25. C58G C84A  0.817
26. C4U A87U  0.817
27. C22U G54U  0.808
28. A16U C58G  0.807
29. A45G U47C  0.787
30. U23A C66G  0.787
31. C30U A70U  0.782
32. C63A A83U  0.77
33. A16G C63G  0.767
34. U46A G54A  0.763
35. G52A C62A  0.732
36. A45C C63U  0.727
37. U46A C58G  0.712
38. C3A A56U  0.71
39. U27A G68C  0.688
40. A16C U47A  0.688
41. G17A A71G  0.675
42. G11A A51C  0.665
43. A43G G50U  0.658
44. A51C C62A  0.623
45. C26G U72A  0.615
46. C66G A77G  0.612
47. G17U C26G  0.608
48. A70G U72A  0.594
49. C58G G73C  0.582
50. U23G C58U  0.582
51. U9G C84A  0.554
52. G10C A56G  0.532
53. G73C C85G  0.527
54. A45C G55U  0.525
55. G31U A87U  0.521
56. G17C C57G  0.516
57. G55C U79C  0.513
58. G53U G82A  0.496
59. C13U C15A  0.482
60. G1U G50U  0.466
61. G17U G59A  0.465
62. G10C A16G  0.453
63. A77U A78G  0.443
64. G1U C57U  0.428
65. A70U U72A  0.415
66. G50A G74A  0.411
67. A43G G55U  0.378
68. C15G G53A  0.353
69. G40C G54C  0.343
70. U12A A70C  0.332
71. G25U C48A  0.332
72. A78G G80C  0.329
73. G38C G52A  0.322
74. A42U U72G  0.322
75. U27C G35U  0.302
76. G31C C66U  0.292
77. C7A C15U  0.283
78. G40C C66A  0.282
79. G80U G81A  0.277
80. G38U G52U  0.273
81. G17U G82C  0.269
82. G31C C41G  0.269
83. G11C C63U  0.264
84. A42C C58G  0.26
85. C18G C57U  0.237
86. G40C U65G  0.237
87. U9A G34A  0.232
88. G1A G59C  0.229
89. G28C A77C  0.229
90. C30A A77G  0.224
91. G28U A51C  0.222
92. G34A G76C  0.217
93. G10A C15A  0.208
94. C49G G81U  0.205
95. G40U A78G  0.199
96. C14A G17U  0.199
97. G1U C57G  0.196
98. G40C G73C  0.185
99. C18G C26A  0.175
100. C36A C75A  0.175
101. A8G G80C  0.172
102. G31A U79A  0.169
103. U37A G80C  0.163
104. A42C A77C  0.161
105. C22A A43G  0.151
106. U20G A51G  0.145
107. C4U U12C  0.145
108. G25C C62U  0.145
109. C33G A42C  0.142
110. G38C U65G  0.142
111. C30G G38A  0.14
112. A45C A78C  0.135
113. G31C A43U  0.135
114. C7U C13A  0.124
115. U20G G82A  0.123
116. G28C G80U  0.123
117. G2A C3G  0.123
118. G31C G38U  0.123
119. G25U G73U  0.117
120. G35C C84G  0.116
121. G1C G11U  0.115
122. G6A A16C  0.111
123. U37G G38A  0.111
124. C22G U79C  0.105
125. G28U G40A  0.104
126. G5A G28C  0.104
127. C24G C41U  0.102
128. U37G U65A  0.101
129. G35C C36G  0.0978
130. C4U G38A  0.0978
131. C21G G80U  0.0963
132. G5C G52C  0.095
133. U69C G74C  0.0923
134. C19U C61U  0.0898
135. C22G G67A  0.0898
136. A45U G82C  0.0898
137. G25C G55U  0.089
138. G29A A71C  0.089
139. G6U C15G  0.0875
140. C33G G68C  0.0875
141. G34A G74U  0.0875
142. A8G C32A  0.0852
143. C7U A83U  0.0852
144. G5A C21G  0.0811
145. C24A G38U  0.0791
146. U12G G38U  0.0755
147. C19U C75G  0.0739
148. G1A G35C  0.0723
149. C15U G28A  0.0692
150. C13G G17A  0.0652
151. A8U G29C  0.0554
152. U12G U37A  0.0554
153. G1A G73U  0.0545
154. C32A C84U  0.0536
155. U79A G81C  0.0504
156. C22A U37G  0.0462
157. C13G G50U  0.0426
158. G6C C30A  0.0415
159. C13G G29C  0.0415
160. C19U C21U  0.0378
161. G25U C66G  0.0354
162. G2C C4A  0.0282
163. C32G G50U  0.0268
164. C21G A71U  0
165. C3U C30G  0
166. C13A A71G  0
167. C18A U47G  0
